Experimental data taken from patent US20070180545A1.
Where “and” joins values, the source holds several entries; their conditions need not be identical. Equal entries are not always repeated.

Assays:
[1] = biological target: TAT-031 as present on the surface of human tumor cell lines (PC3, H1299, HL-60) (human) (UniProt P08195); assay: flow cytometry on H1299 human tumor cells
[2] = biological target: TAT-031 as present on the surface of human tumor cell lines (PC3, H1299, HL-60) (human) (UniProt P08195); assay: flow cytometry on HL-60 human tumor cells
[3] = biological target: TAT-031 (full-length clone expressed from phCMV1-TAT-031 on stably transfected cells) (human) (UniProt P08195); assay: flow cytometry on BaF3 cells stably transfected with TAT-031 (SLC3A2)
[4] = biological target: TAT-031 as present on the surface of human tumor cell lines (PC3, H1299, HL-60) (human) (UniProt P08195); assay: flow cytometry on PC-3 human tumor cells

Mouse monoclonal antibody 44D7 (Abcam, Cat#AB23495)
relative geometric mean fluorescence (relative geometric mean fluorescence) [1]: 527 and 419 and 389 | relative geometric mean fluorescence (relative geometric mean fluorescence) [2]: 118 and 257 and 205 | relative geometric mean fluorescence (relative geometric mean fluorescence) [3]: 165 and 102 | relative geometric mean fluorescence (relative geometric mean fluorescence) [4]: 153 and 98.6 and 86
